For the data set, the target named is PFV RNase H wt (prototype foamy virus, UniProt P14350 591-751). In words: fluorescence anisotropy; 25 nM substrate; Fluorescence anisotropy: 25 nM substrate, excitation 652 nm, emission 673 nm; buffer, salt, pH and temperature not given (as described in ref 5). The conditions noted are these: protein: recombinant; label: DY647 at 5' end of DNA strand; blunt. For orientation: Fluorescence polarisation rises when a labelled molecule tumbles more slowly, as on binding a larger partner.

Our source for the Kd values is PMC3443672, “The solution structure of the prototype foamy virus RNase H domain indicates an important role of the basic loop in substrate binding”.

Usually Kd stands for the equilibrium constant for the complex coming apart.

B1: 10/10-mer RNA/5'-DY647-DNA (DNA:RNA)
RNA: GCGACACCUG
DNA: CAGGTGTCGC
In the case of B1, the Kd turned out to be 23 ± 3 µM.
